B1: DNA topoisomerase 4 subunit A (Escherichia coli (strain K12)), P0AFI2 (parent)
chain: MSDMAERLALHEFTENAYLNYSMYVIMDRALPFIGDGLKPVQRRIVYAMSELGLNASAKFKKSARTVGDVLGKYHPHGDSACYEAMVLMAQPFSYRYPLVDGQGNWGAPDDPKSFAAMRYTESRLSKYSELLLSELGQGTADWVPNFDGTLQEPKMLPARLPNILLNGTTGIAVGMATDIPPHNLREVAQAAIALIDQPKTTLDQLLDIVQGPDYPTEAEIITSRAEIRKIYENGRGSVRMRAVWKKEDGAVVISALPHQVSGARVLEQIAAQMRNKKLPMVDDLRDESDHENPTRLVIVPRSNRVDMDQVMNHLFATTDLEKSYRINLNMIGLDGRPAVKNLLEILSEWLVFRRDTVRRRLNYRLEKVLKRLHILEGLLVAFLNIDEVIEIIRNEDEPKPALMSRFGLTETQAEAILELKLRHLAKLEEMKIRGEQSELEKERDQLQGILASERKMNNLLKKELQADAQAYGDDRRSPLQEREEAKAMSEHDMLPSEPVTIVLSQMGWVRSAKGHDIDAPGLNYKAGDSFKAAVKGKSNQPVVFVDSTGRSYAIDPITLPSARGQGEPLTGKLTLPPGATVDHMLMESDDQKLLMASDAGYGFVCTFNDLVARNRAGKALITLPENAHVMPPVVIEDASDMLLAITQAGRMLMFPVSDLPQLSKGKGNKIINIPSAEAARGEDGLAQLYVLPPQSTLTIHVGKRKIKLRPEELQKVTGERGRRGTLMRGLQRIDRVEIDSPRRASSGDSEE
partner: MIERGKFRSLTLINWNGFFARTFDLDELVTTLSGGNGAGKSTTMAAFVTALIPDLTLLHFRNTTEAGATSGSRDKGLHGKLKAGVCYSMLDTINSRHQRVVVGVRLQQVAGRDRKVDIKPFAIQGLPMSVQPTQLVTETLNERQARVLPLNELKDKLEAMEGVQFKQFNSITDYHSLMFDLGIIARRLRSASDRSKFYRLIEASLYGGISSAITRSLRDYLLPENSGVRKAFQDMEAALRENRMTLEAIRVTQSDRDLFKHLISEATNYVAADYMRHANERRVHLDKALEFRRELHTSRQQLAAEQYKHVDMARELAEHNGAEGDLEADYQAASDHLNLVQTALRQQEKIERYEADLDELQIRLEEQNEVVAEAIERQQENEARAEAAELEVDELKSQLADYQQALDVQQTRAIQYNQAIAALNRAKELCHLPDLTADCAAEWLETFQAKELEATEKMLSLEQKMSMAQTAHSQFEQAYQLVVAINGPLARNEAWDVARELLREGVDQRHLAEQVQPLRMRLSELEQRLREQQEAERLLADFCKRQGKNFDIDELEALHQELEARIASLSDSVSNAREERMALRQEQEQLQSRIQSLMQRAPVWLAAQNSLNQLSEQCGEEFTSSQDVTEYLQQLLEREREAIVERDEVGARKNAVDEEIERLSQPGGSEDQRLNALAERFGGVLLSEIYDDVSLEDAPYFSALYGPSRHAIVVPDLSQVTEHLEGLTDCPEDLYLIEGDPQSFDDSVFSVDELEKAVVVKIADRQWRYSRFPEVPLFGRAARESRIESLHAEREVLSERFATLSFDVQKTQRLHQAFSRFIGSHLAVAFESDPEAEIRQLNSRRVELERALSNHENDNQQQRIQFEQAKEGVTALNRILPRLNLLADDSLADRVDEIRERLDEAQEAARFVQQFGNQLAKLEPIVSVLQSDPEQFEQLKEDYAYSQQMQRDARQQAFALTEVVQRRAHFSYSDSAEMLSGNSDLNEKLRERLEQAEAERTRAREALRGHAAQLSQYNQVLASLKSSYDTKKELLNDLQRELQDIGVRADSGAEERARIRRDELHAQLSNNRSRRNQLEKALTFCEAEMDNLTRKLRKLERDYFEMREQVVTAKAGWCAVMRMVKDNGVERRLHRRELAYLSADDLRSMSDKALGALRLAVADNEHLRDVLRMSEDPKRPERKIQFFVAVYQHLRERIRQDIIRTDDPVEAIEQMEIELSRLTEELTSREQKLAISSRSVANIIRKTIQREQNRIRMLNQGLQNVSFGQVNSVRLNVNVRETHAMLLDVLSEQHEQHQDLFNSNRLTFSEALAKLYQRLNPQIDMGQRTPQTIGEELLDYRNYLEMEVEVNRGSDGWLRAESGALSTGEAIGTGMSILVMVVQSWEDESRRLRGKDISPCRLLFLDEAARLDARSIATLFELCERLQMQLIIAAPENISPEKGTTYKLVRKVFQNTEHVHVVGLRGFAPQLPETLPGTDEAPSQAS

Variants of: B1
Settings: with mukb_ecoli mukB

| effect of a mutation on the interaction | Variant |
| --- | --- |
| disrupting interaction | R729A |
| disrupting interaction | R705E |
| disrupting interaction | R705E;R729A |

Reference: IntAct's records for PubMed 20696938
